Laboratory results from the supplement of paper PMC10567573.
± gives the standard deviation.

Test: protein stability index of a GFP-peptide fusion (GPS, HEK-293T) (PSI 1-6); higher = more stable
Settings: c terminus: a fixed tail appended
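Also: 24-mer peptide tiles fused after GFP, lentivirally expressed, FACS-sorted into six equal bins by GFP/DsRed ratio, decoded by Illumina sequencing, PSI is the read-weighted mean bin number.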

Sequence	protein stability index (treatment: DMSO)	protein stability index (treatment: MLN4924 1 uM, 8 h)
ELIDNLKEAQYIRTELVEQAFRAI [PCMTD2]	2.54 ± 0.32	2.29 ± 0.44
ELIRNIQELLKRTIMQAVSQIRLN [TEKT4]	3 ± 0.46	2.77 ± 0.53
ELKEKEATLCLEFLLQNDANPSIR [ANKRD44]	3.19 ± 0.096	3.25 ± 0.31
ELQKIVQAGDKDLDGQLDFEEFVH [SLC25A25]	3.93 ± 0.046	4.19 ± 0.21
ELSAIGSDTTPLPSWAALNSSTWG [SNX8]	2.94 ± 0.36	2.75 ± 0.18
ELSEKNFQLNQDKMNFSTLRNIQG [POMP]	2.69 ± 0.59	3.27 ± 0.44
EMRISESAASGARFPLDSAQDPDV [PCDHGC5]	5.38 ± 0.21	5.35 ± 0.16
EMSLPEVQKDKYPEEFSLLKLQTK [SPATS1]	4.29 ± 0.28	4.04 ± 0.34
EPELQVGIDIMKTSFPGRGSIPEF [AASDHPPT]	3.67 ± 0.22	3.61 ± 0.29
EPESKNAPHSQGEYDVYSTFQSHE [PPP2R2C]	5.19 ± 0.15	5.19 ± 0.15
EPREFSSRNFGVRNQGNFSVVGTV [ZC2HC1C]	3.06 ± 0.31	3.01 ± 0.24
EQILELLVLEQFLTILPTEIETWV [ZNF449]	3.15 ± 0.38	2.73 ± 0.52
EQPRLEFLMRKCGWFVRELRVEFA [FBXO33]	2.64 ± 0.34	2.12 ± 0.24
EQTYHAKLENARLSSEMNTSTVNS [LMNB1]	4.88 ± 0.14	5.03 ± 0.19
ERNRMHGLNDALDNLRKVVPCYSK [NEUROD6]	2.75 ± 0.47	3.02 ± 0.32
ERQVLPDPEVLEAVGDRQDGLREQ [PBXIP1]	5.54 ± 0.26	5.64 ± 0.1
ERVDGRRLVYKFGKNSSGWKEEEV [ELF3]	4.11 ± 0.37	4.39 ± 0.15
ERVEAFSDGVYAIVATLLILDICE [TMEM175]	3.05 ± 0.15	3.15 ± 0.22
ERVVINISGLRFETQLKTLAQFPN [KCNA1]	2.47 ± 0.29	2.32 ± 0.55
ESGPSAEKYSVATQLFIGGVTGWC [FUNDC2]	2.14 ± 0.29	1.97 ± 0.38
ESITSAGRDDLESFQLEISGFLKE [FAM98B]	3.9 ± 0.26	4.1 ± 0.28
ESKDQGKTLALARTMDIPRSVQNF [ALDH8A1]	4.01 ± 0.15	4.18 ± 0.23

Sequence	protein stability index (treatment: DMSO)	protein stability index (treatment: MLN4924 1 uM, 8 h)
ESRRQQILREFEELHRRLDEEQQV [TRIM39]	4.87 ± 0.23	4.8 ± 0.097
ESRYTSDYFISYGIEHAQCVPPSE [ETS1]	3.22 ± 0.29	3.5 ± 0.53
ETGEAARDPSLRPARTVLVGSLSW	3.06 ± 0.32	2.88 ± 0.27
ETGKLLWKVRYDTFIVSCKFSPDG [WDR88]	2.55 ± 0.37	2.04 ± 0.26
ETNEEDKTLQEIYRKYRKLIESEL [FBXO39]	3.02 ± 0.44	3.4 ± 0.34
EVEGVKNIMTQNVERILARGENLE [VAMP8]	4.68 ± 0.15	4.46 ± 0.16
EVIEKPENDPEWWKCKNARGQVGL [NCK2]	4.28 ± 0.31	4.368 ± 0.038
EVIPYTPAMQRYVKRLHEVGRTEP [HMOX1]	3.18 ± 0.21	3.41 ± 0.25
EVNSAEELEGLIADPDEMRMQALL [FEM1C]	4.89 ± 0.16	5 ± 0.3
EVPQLPPRASISHVTCVDQSEHTM [C2CD2L]	4.66 ± 0.15	4.7 ± 0.25
EYLSFFDFSGLTLDGALRTFLKAF [PSD2]	2.44 ± 0.31	2.01 ± 0.34
FAKLEKLTILAKRKSLFDDKAVEI [STX5]	2.47 ± 0.23	2.48 ± 0.53
FDVKNDRYIVNGSHEANKLQDMLD [EIF5]	3.97 ± 0.11	3.81 ± 0.25
FEEVLSSTAHASAQSLAGGSRRTK [TPD52L1]	5.16 ± 0.16	5.11 ± 0.24
FEQILSLPELKANPFKERICRVFS [CIB1]	2.25 ± 0.2	2.38 ± 0.16
FFFDRNPGAFGTILTFLRAGKLRL [KCNG1]	2.48 ± 1.3	2.07 ± 0.11
FGERRIPRGRRISVICRSLPEGMG [ALKBH7]	2.82 ± 0.29	2.87 ± 0.26
FGRKDHLTRHTKKTHSQELMKESL [PLAGL1]	3.53 ± 0.2	3.77 ± 0.26
FIYSLKQMLLNVEANSAKVQEDLE [FSD1]	2.55 ± 0.16	2.38 ± 0.28
FKDEWTQLDMFYRNWALKESFIKA [AASDHPPT]	2.02 ± 0.16	2.22 ± 0.14
FKPVVAAQKISKGADPKSVVCAFF [ZC3H15]	2.32 ± 1	2.81 ± 1.5
FLDLMETIDKQREEMAKSSRASAA [LRRC45]	3.71 ± 0.11	4.08 ± 0.3

Sequence	protein stability index (treatment: DMSO)	protein stability index (treatment: MLN4924 1 uM, 8 h)
FLKEYFPIEVVTEGLLNTYQELLG [NLN]	2.44 ± 0.51	2.52 ± 0.55
FLSGLAFRVFHCTQYVRHSSDPFY [TPH1]	2.67 ± 0.27	2.99 ± 0.4
FLVMKGQEGAASKVLGRLRALSDT [SLC2A12]	2.27 ± 0.45	2.44 ± 0.39
FLWGPRALVETSYVKVLHHMVKIS [MAGEA3]	2.01 ± 0.35	2.64 ± 0.71
FMAYEQIKRLVGSDQETLRIHERL [SLC25A25]	3.08 ± 0.26	2.97 ± 0.42
FNEMSAQGLRPRTVSSPIPYTPSP [CCDC6]	4.02 ± 0.3	4.12 ± 0.23
FPVAEQDKLLKHMIIEHKIVIADV [ZNF277]	2.25 ± 0.18	2.4 ± 0.34
FQEWEAHRNLSQLPNFAFSVPLAY [TCF25]	2.73 ± 0.58	2.4 ± 0.25
FSPIAIDGMSGLAGVGLSGGAAGA [ELAVL3]	3.04 ± 0.26	3.2 ± 0.26
FSTCGSHLTVVAIFYGSGIFNYMR [OR3A1]	2.89 ± 0.56	2.94 ± 0.49
FTTFRGTELSFLVTTHQPTNLVLP [EDNRA]	2.84 ± 0.74	2.29 ± 0.37
FTVGSVLGQILVSVAGWSLFSLNV [SLC19A2]	3.28 ± 0.33	3.1 ± 0.63
FVYENAKEGARNIRTSERVTLIVD [BTBD10]	2.55 ± 0.6	3.06 ± 0.5
FYRLYQDLETHRLPCTSRCPRPCR [SCNN1D]	2.8 ± 0.26	2.99 ± 0.35
GAAQEALSIQLQPKETQPFPKSEQ [ZNF232]	5.17 ± 0.25	5.22 ± 0.23
GAFQAQEKELVFDIDMTDYDDVRR [PRIM1]	4.72 ± 0.4	4.71 ± 0.14
GAKDSELASQNKPLWQCYLGRFND [PDS5B]	2.51 ± 0.37	3.25 ± 0.3
GAPLIRVHSSPVSSPSVSGPRRLV [SPACA3]	3.24 ± 0.31	3.6 ± 0.19
GARPVSSAASVYAGAGGSGSRISV [KRT18]	3.66 ± 0.34	3.75 ± 0.19
GDGKSKKKQAGRPKGSKGKEKDSP [RBBP5]	5.39 ± 0.29	5.34 ± 0.11
GDLGDPFHLGLEDILMEEEEGVVG [TFE3]	5.33 ± 0.34	5.3 ± 0.2
